This is an account of results in the DeepSol protein solubility set.

A short description of this series: soluble on expression in E. coli; label from the status in PepcDB or PDB records.
In the case of “SADSKEGVLPLTAASTAPISFGFTRTSARRRLADSGDGAGPSPEEKDFLKTVEGRELQSVKPQEAPKELVIPLIQNGHRRQPPARPPGPSTDTGALADGVVSQAVKELIAESKKSLEERENAGVDPTLAIPMIQKGCTPSGEGADSEPRAETVPEEANYEAVPVEAYGLAMLRGMGWKPGEGIGRTFNQVVKPRVNSLRPKGLGLGANLTEAQALTPTGPSRMPRPDEEQEKDKEDQPQGLVPGGAVVVLSGPHRGLYGKVEGLDPDNVRAMVRLAVGSRVVTVSEYYLRPVSQQEFDKNTLDLRQQNGTASSRKTLWNQELYIQQDNSERKRKHLPDRQDGPAAKSEKAAPRSQHWLHRDLRVRFVDNMYKGGQYYNTKMIIEDVLSPDTCVCRTDEGRVLEGLREDMLETLVPKAEGDRVMVVLGPQTGRVGHLLSRDRARSRALVQLPRENQVVELHYDAICQYMGPSDTDDD”, the “soluble on expression in E. coli” value is “soluble”. For “MGDNWRYEVKYDGFRTILFWTKETIRLESRNERLLTDQFPEIHDFCQRISNKVEAWLPITIDGELVHLVSPYRAHFAPIQTRSFMRKHETIAASSIKTPATLLAFDILELKGKTLVDLPYDERKKQLKALLKAIDVPLEHHHHHH”, the “soluble on expression in E. coli” value is “not soluble”. With “AIATSCHIAEEHIQKVAIFGGTHGNELTGVFLVKHWLENGAEIQRTGLEVKPFITNPRAVKKCTRYIDCDLNRIFDLENLGKKMSEDLPYEVRRAQEINHLFGPKDSEDSYDIIFDLHNTTSNMGCTLILEDSRNNFLIQMFHYIKTSLAPLPCYVYLIEHPSLKYATTRSIAKYPVGIEVGPQPQGVLRADILDQMRKMIKHALDFIHHFNEGKEFPPCAIEVYKIIEKVDYPRDENGEIAAIIHPNLQDQDWKPLHPGDPMFLTLDGKTIPLGGDCTVYPVFVNEAAYYEKKEAFAKTTKLTLNAKSIRCCLH”, the “soluble on expression in E. coli” value is listed as “soluble”. Consider “MSLKIEPCLPMKILIVEDDPLMQLGLEQALGAHERFEIIGRVDNGYGAVQQAAVLNPDLIVMDIGLPGLDGIEATKQIKQTSPQIHIVVLTSHTLPNEIIAALSSGADAYCVKGATLERLILAIAAAQDGATYLDPQIARVVVENLKPPVPEGQADVSSLSEREIDVLKLIVEGKSNQEIAQTLYLSTNTIKTHVRGIMNKLSVDDRVQAAVIALRSGLVEGHHHHHH”, for which the “soluble on expression in E. coli” value is given as “soluble”.

As for “MGSDKIHHHHHHMLSNNCSILLIDDDADVLDAYTQLLEQAGYHVSACNNPFDAREQVPKDWPGIVLSDVCMPGCSGIDLMTLFHQDDDLLPILLITGHGDVPMAVEAVKKGAWDFLQKPIDPGKLLTLVDAALRQRQSVIARRQYCQQKLQVELIGRSQWTVRYRQRLQQLAETDIAVWLYGEPGTGRMTGARYLHQLGRHAEGPFIACELTPANAHTLNELIAQAQGGTLVLSHPEHLTHEQQHQLVQLQSHEKRPFRLIGIGSASLVELAASSQIVAELYYCFAMTQIGCQPLSKRPDDIEPLFHHYLQKTCQRLNHPVPEVDAGLLKGMMRRVWPNNVRELANAAELFAVGVLPLAETVNPLMHIGEPTPLDQRVEDVERQIITEALNIHQGRINEVAEYLLIPRKKLYLRMKKYGLNKEHYKGV”, the “soluble on expression in E. coli” value is listed as “not soluble”. The same measure for “MWRRSLTESHSNELRLELTSRIVSAYLSRNVIAPSELPHLIQQTYGSLGKTSEPTKTPATVEEQRPAVPIKKSVTDDFIVCLEDGKSFKSLKRHLMAKYALTPEQYREKWKLPADYPMVAPNYARKRSELARATGLGKKSAANLSPSLQAVRSA”: “not soluble”. The same measure for “VEAHPSLTLFSQLRIEHEDMAIAEDDWAWLRHKGHLRLGAALDETSPFNVRLDDENYEGITADVATLVGQLLGMRIKVVSFDTHADAVAALAAGKIDLLGSHYSSAGDSSLVLSQPYARDRLAVFKRMGEKRNSPEDLAGLSVAVAREHVGELRQRFPRARFVVFGSHDEAVAAVAFGHTDLYLDDVLSAYHRINRSYYGYVRFERFADARLEGGYGFLLRRGDTNLLRVVNSAIGAINQDRLESIARRWVGSGSLPTGQRIALTPQESRWIARHPVVRLVINDDLAPLAFFNSDETFSGIASDLLDMISRRTGLHFQVTPRSGGFPEQIGVLARKEADLAIMSRSSKREEMLRFTRSFLSTSYVLVTRADDKGRAEIPGSLDGKRIAIPAGHVGMQQVRERYPQASMVEVGVALDAMNLVYEGRADAAVVPLVTARYYIVRLFRERLAIADLVPIGAATAHFAVRRGDAELQSILDKALLSISPDDLSDIVNRWRSPPGMSGQT”: “soluble”; for “TAVSLEQLLIAREQRVALQQQCLHEYQQTLLSLTLTAVGPVKKNALLDYVFAKALANITACFNKLSVTATAQFIRPLQTGHEALFVLPIDAKILKRAMIELENSSPLARLWDIDVISQEGHYSRGEFGFAERTCLMCAESAKICARSRRHSIDDLLSEIHTRAQQ”: “not soluble”.

As for “MNNSIPERFIFQCALFKNLEREVFMTHGYVDSHIIDQALRLRLKDETSVILSDLYLQILQYIEMHKTTLTDIIINDRESVLSAAALEHHHHHH”, the “soluble on expression in E. coli” value was “not soluble”. Turning to “MGSDKIHHHHHHMITEELEVGYNVPATVGMDEADIQTPCLILDLDALERNVKKMGDYAKAHNMRHRSHGKMHKSVDVQNLQEELGGAIGVCCQKVSEAEVFVRGGIKDVLVSNQVRNPAKIERLANLPKLGSTITVCVDDIDNVAELSAAATKAGTELNCYIEIDCGAGRCGVTTTEAVVEIAKAIDAAENLKFTGIQAYQGAMQHMDSFSDRKAKTQIAIDQVQEAIDALTEIGLKPEFVSGGGTGSYYFESNSGVFNELQCGSYAFMDADYGRILDEDGNRIDAGEWENALFILTSVMSHAKADKAIVDAGLKAQSVDSGLPFVYGRDDVEYVKCSDEHGVVSDPNGVLEINEKLKLVPGHCDPTCNVHDFYIGVRNGKVETVWPVSARGKMY”, the “soluble on expression in E. coli” value is recorded as “not soluble”. The same measure for “MGSDKIHHHHHHMISTANLTIQFGPKPLFENVSVKFGEGNRYGLIGANGSGKSTFMKIIGGDLEPSAGNVSLEPGVRLGKLRQDQFAFEEVRVLDVVMMGHTEMWAAMSERDAIYANPEATEDDYMRAADLEAKFAEYDGYTAEARAGELLLGLEIAVDQHNLLMREIAPGWKLRVLLAQALFSNPDVLLLDEPTNNLDINTIRWLENVLNGYQSTMIIISHDRHFLNQVCTHMADVDYGEIRVYPGNYDDYMLASTQARERLTANNAKAKERIVELQDFVRRFAANKSKSRQATSRLKQIDRIKADQVEVKPSSRQNPYIRFEQNKVMHRLAVTIEKLSKSYDQPVIRDFSAMVDAGEKVAIIGANGVGKTTLLRMLATDLAPDSGTVKWSENADIGYMAQDVSDQFQQGDINLFDWMAEHRQPGDDDQSIRSALGRLLFSGDDLPKAPKVLSGGEKNRMTFGRLMLGRHNVMLLDEPTNHLDMESIESLQFALEKYEGALIFVSHDREFVSGLATRIIEILPDGELVDYRGGYEDYLASRGIEA”: “not soluble”. “MTVEVDEYLNFCGTINEFISAHMLCLGMSVNNYEHRYIWDEILTSKSIKIRPFPFEKTARRSISGMIIKDDYETTLAYNSNMGEKRKNFTISHELIHAMYHLDSENKVFTDTKDTLSYSLADILPEFQANIGASSILLPEPVLINELKKGTPPYFISNRYGISEQAIFMRLLQQMQASFEASYVAAYDTANKIMNGNSKNLAIELGRNLERKILYSNPFYEAITL”: the “soluble on expression in E. coli” value was “not soluble”. The same measure for “MAQVSTTAGGAVGVNRSQSMLLSSQEVEQMSAKSYAGELQKARAAGRLNTDPALTARVRRVSQRLIAQTPSFRPDARNWRWEVNVLTTDDMNAYAMAGGKIMVYTGLVKQLKLSDAELAAVIGHEISHALREHTRENMSQAYAQQMGLGLVGALVGLNDSQLKLASLVGDVTLSKPHSRTMESEADIMGLELMARAGYDPNAAVNVWQKMQAAGGGGGMEFLSTHPSGPTRIRDLQAHIPQVWPLYQAAPKKGLEHHHHHH”: “not soluble”; for “MGSDKIHHHHHHMKSKANQSQGLLLFRLSQHQIFALGTLKIRELVPYTPLSKIPQSHPTILGAATIRGHTIPVVDMAAAIGYRPVSDEERQHCYIIITDCQRMIIGFLVRAIDKIIECNWRDIEAPSANLGKNAFLTGVTRYDNQLVQLLDVELLLSKVFPDAPEANRAILTDVQREKLKPRRILLVDDSKVARKQLSDALDSINIPYFVTPDGREALSIMEQAAAEHHPIDILVSDIEMPGLDGYELAFEVRDNPLLANAYIILHTSLSSEISVSQAHQVGANEALTKFDAHELVEAMLRGAELAAKRAN”: “not soluble”.
